From publication PMC12607617, “Self-resistance mechanism to acyldepsipeptide antibiotics in the Streptomyces producer” (mBio, 2025) come the findings set out here.

The series concerns the molecule itself. Kind of series: SEC; purified S. hawaiiensis ClpP1, alone or with ClpP_(ADEP), pre-incubated with ADEP1.

B1: Streptomyces hawaiiensis ClpP1, untagged (enzyme, Streptomyces hawaiiensis NRRL 15010, UniProt A0A5B9BGY8 1-219, looked up)
chain: MRRPGAVVRRAGGYVTNLMPSAAGEPSIGGGLGDQVYNRLLNERIIFLGQPVDDDIANKITAQLLLLASDPEKDIYLYINSPGGSITAGMAIYDTMQYIKNDVVTIAMGLAASMGQFLLSAGTPGKRFALPNAEILIHQPSAGLAGSASDIKIHAERLLHTKKRMAELTSQHTGQTIEQITRDSDRDRWFDAFEAKEYGLIDDVMTTAAGMPGGGGTGA
notes: ClpP1, proteolytic subunit of the Clp protease, Streptomyces hawaiiensis NRRL 15010; Printed as untagged in the pull-down; also called shClpP1
In general, stoichiometry N refers to the number of molecules, sites or subunits per partner or assembly. For B1, the “stoichiometry N” value was found to be 14.
